Our source for the IP-MS count values is patent publication US20250042956A1 (University of California, published 2025).

Test in all cases: IP-MS rep 2
One test concerns the target T1, AT5G51230.1 EMF2 (Arabidopsis thaliana, UniProt Q8L6Y4 1-631).
T1 construct: Endogenous protein found by mass spectrometry; also called EMBRYONIC FLOWER 2
T1 sequence (looked up): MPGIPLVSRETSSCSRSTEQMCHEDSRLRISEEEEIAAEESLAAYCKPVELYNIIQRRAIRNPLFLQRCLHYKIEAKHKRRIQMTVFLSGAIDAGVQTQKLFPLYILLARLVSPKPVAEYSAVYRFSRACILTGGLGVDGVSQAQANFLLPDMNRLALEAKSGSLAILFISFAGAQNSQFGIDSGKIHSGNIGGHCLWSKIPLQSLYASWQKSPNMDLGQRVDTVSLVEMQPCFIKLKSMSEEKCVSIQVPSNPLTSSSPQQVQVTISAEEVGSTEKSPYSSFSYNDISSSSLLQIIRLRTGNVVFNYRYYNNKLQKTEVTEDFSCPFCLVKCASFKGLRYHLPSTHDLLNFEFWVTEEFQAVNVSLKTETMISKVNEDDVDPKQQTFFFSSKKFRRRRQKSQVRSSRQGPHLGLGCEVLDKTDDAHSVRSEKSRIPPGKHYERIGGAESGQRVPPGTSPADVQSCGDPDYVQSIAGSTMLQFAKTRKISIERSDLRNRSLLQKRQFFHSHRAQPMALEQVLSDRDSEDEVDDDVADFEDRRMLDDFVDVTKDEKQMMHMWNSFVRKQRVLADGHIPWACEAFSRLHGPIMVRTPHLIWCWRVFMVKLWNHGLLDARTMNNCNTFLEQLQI
The method in brief:
(§1)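 Peptide counts for co-purified proteins come from mass spectrometry of proteins pulled down from Arabidopsis floral buds with anti-FLAG magnetic beads. Ten grams of unopened buds from wild-type and FLAG-tagged transgenic lines were ground in liquid nitrogen and homogenised in 25 mL IP buffer. Lysates were held with 250 μL anti-FLAG M2 magnetic beads at 4° C for 2 hours, and bound proteins were eluted in TBS with 250 μg/mL 3×FLAG peptides.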

The target in the next test is T2, AT2G23380.1 CLF (Arabidopsis thaliana, UniProt P93831 1-902).
T2 construct: Endogenous protein found by mass spectrometry; also called CURLY LEAF
T2 sequence (looked up): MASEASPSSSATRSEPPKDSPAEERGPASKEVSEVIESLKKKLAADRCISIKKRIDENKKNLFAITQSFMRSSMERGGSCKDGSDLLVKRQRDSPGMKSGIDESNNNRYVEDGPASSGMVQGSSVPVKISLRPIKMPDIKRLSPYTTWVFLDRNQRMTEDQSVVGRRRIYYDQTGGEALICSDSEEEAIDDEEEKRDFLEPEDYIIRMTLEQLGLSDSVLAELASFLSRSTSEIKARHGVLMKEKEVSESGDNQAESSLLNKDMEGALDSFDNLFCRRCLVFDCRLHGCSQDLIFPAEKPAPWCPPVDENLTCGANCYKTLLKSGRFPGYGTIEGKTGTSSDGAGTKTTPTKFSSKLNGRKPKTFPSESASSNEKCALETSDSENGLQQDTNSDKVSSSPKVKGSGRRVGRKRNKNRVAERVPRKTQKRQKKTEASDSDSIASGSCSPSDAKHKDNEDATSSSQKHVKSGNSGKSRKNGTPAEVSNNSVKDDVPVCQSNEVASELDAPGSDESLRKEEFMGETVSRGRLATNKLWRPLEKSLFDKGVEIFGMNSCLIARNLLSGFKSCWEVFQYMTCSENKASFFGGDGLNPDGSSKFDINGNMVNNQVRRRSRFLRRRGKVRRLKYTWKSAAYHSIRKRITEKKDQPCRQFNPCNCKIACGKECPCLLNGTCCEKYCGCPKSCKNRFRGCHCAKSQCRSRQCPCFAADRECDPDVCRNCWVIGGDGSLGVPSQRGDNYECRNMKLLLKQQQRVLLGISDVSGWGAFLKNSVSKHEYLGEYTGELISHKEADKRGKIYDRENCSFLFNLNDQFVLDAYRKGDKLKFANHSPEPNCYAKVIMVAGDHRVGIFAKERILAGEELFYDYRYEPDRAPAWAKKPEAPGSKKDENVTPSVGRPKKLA
In short, it runs like this:
as §1

A further test deals with T3, AT3G20740.1 FIE (Arabidopsis thaliana, UniProt Q9LT47 1-369).
T3 construct: Endogenous protein found by mass spectrometry; also called FERTILIZATION INDEPENDENT ENDOSPERM
T3 sequence (looked up): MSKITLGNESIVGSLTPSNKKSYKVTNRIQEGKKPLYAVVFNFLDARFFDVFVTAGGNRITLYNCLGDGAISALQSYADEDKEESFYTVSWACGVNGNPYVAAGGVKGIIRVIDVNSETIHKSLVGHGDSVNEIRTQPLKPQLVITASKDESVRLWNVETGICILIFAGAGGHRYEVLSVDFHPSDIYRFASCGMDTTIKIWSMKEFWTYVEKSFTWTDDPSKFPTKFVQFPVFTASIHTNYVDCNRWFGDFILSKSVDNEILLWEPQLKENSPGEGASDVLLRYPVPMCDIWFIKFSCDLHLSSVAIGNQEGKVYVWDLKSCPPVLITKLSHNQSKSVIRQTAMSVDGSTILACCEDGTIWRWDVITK
The method in brief:
as §1

For the next test, the target named is T4, AT3G49850.1 TRB3 (Arabidopsis thaliana, UniProt Q9M2X3 1-295).
T4 construct: Endogenous protein found by mass spectrometry
T4 sequence: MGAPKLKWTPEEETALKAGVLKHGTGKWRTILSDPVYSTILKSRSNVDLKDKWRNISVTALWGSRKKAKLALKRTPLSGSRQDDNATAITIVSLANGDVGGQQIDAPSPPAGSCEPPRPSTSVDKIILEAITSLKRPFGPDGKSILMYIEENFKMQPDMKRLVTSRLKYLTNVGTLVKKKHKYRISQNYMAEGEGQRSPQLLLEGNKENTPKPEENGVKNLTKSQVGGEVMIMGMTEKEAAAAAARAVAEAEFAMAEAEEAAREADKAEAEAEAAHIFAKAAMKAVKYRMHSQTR
In short, it runs like this:
as §1

For another test, the target named is T5, AT4G35510.1 TRBIP1 (Arabidopsis thaliana).
T5 construct: Endogenous protein found by mass spectrometry
T5 chain: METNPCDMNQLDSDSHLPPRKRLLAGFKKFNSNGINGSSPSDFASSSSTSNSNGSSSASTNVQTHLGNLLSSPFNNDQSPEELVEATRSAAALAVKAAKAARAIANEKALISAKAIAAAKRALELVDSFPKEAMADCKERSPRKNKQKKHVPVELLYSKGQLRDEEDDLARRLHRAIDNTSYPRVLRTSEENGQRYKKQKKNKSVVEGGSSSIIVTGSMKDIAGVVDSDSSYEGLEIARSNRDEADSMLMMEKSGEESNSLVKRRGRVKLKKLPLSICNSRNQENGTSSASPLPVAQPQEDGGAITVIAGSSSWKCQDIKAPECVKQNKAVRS
The method in brief: as §1

B1: TRBIP2 (bait of the TRBIP2 IP-MS) (other, not shown: small tags and cut ends)
chain: MATNACLESDSLLPPRKRLLAGFKNQNSRISNESPSPPFASSSSSTTTSNGSSASAVVHTHHLDHLLNDQTRSPEELAQASKATAALAVKVAKAARATANEKAIIASKAVAAAKNALELFASFPAAETVSCKEPRLIRAINNSPRVLTDCSGHRNKKQKTLTSTMNDGNDVAGVVDSDDGTRVNGKLLLCDNTLKEKTEEESSSLGKRRGRVKLPLSMCAYKDQENGITLEENNLSVSKSEGYNGGVAQVIERPSWKCQDLKSPECVKQNKVVRS
notes: tag and its position not described; also called TRBIP2-1; TRBIP2-2
In the case of B1, the IP-MS count with AT5G51230.1 EMF2 turned out to be 0; with AT2G23380.1 CLF, 0; with AT3G20740.1 FIE, 0; with AT3G49850.1 TRB3, 6; with AT4G35510.1 TRBIP1, 0.
